Experiment: Thermal aggregation profiles and Tagg by SDS-PAGE
Type: physicochemical
Details: heat treated separately 30 minutes, 42 to 64° C.
Procedure: After incubation, reactions were stopped by transferring the samples to ice for 10 minutes prior to centrifugation at 18,000 r.p.m. for 20 minutes at 4° C. in a Beckman Coulter (Fullerton, Calif., USA) centrifuge (rotor: F12×8.2). The supernatants (3 or 5 μl) were then analyzed by 10% NEXT-GEL SDS-PAGE (Amresco, Solon, Ohio, USA). The gels were illuminated on a transilluminator at 365 nm followed by Coomassie blue staining. Coomassie-stained protein bands corresponding to Ffold were integrated using ImageJ (see the website at rsbweb.nih.gov/ij/) and plotted against the temperature.
To determine the Tagg at which 50% of proteins were aggregated, the thermal aggregation profile data were fit to the following sigmoid function:
Ffold=1−(1/(1+e^(Tagg-T/c))
where Ffold is the normalized fluorescence intensity at temperature T, and c is the Hill slope factor.
Ffold was then determined by SDS-PAGE. For this experiment, equal amounts of the three proteins were mixed to avoid variations in buffer composition and protein concentrations.
Due to the oligomeric quaternary structure of these proteins, experiments were performed separately to avoid the formation of heterogeneous protein complexes.

B1: GK: tetrameric glycerol kinase from E. coli (protein, UniProt P0A6F3 2-502, looked up)
Glycerol kinase: TEKKYIVALDQGTTSSRAVVMDHDANIISVSQREFEQIYPKPGWVEHDPMEIWATQSSTLVEVLAKADISSDQIAAIGITNQRETTIVWEKETGKPIYNAIVWQCRRTAEICEHLKRDGLEDYIRSNTGLVIDPYFSGTKVKWILDHVEGSRERARRGELLFGTVDTWLIWKMTQGRVHVTDYTNASRTMLFNIHTLDWDDKMLEVLDIPREMLPEVRRSSEVYGQTNIGGKGGTRIPISGIAGDQQAALFGQLCVKEGMAKNTYGTGCFMLMNTGEKAVKSENGLLTTIACGPTGEVNYALEGAVFMAGASIQWLRDEMKLINDAYDSEYFATKVQNTNGVYVVPAFTGLGAPYWDPYARGAIFGLTRGVNANHIIRATLESIAYQTRDVLEAMQADSGIRLHALRVDGGAVANNFLMQFQSDILGTRVERPEVREVTALGAAYLAGLAVGFWQNLDELQEKAVIEREFRPGIETTERNYRYAGWKKAVKRAMAWEEHDE
**Q.** Which Tagg does the source give for B1 here?
**A.** Its Tagg is 50.4±0.3 °C.
